Test [1] has as its target T1, Cynomolgus monkey DLL3 antigen protein (Kactus Biosystems, Cat. No. CM103) (Cynomolgus monkey, UniProt Q9NYJ7 27-490 (human entry)).
T1 construct: also called cyno DLL3
T1 chain: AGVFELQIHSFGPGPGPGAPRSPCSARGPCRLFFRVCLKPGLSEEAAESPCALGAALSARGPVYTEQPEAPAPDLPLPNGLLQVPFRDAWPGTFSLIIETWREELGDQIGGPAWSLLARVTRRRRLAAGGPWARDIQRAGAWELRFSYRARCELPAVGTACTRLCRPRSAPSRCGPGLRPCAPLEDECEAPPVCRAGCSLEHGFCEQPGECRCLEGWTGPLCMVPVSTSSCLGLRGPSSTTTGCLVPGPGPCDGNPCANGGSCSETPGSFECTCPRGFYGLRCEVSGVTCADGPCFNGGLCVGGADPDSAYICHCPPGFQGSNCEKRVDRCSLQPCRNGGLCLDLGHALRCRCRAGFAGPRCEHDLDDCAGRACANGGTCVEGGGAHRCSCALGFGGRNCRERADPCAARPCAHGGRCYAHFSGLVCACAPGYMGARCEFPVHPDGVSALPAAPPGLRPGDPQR
As to the kind of experiment: ELISA, antigen coated at 2 ug/ml, induced supernatant, anti-Myc HRP. The method, then:
(§1) In order to obtain a positive antibody that can cross-bind to human DLL3 and Cynomolgus monkey DLL3, the above library was amplified and added to the M13K07 helper phage to assemble phage. 1×10¹² pfu camel immune library phage was added and incubated with biotinylated human DLL3 proteins (8 μg/mL) bound to magnetic beads for 1 h at room temperature. After washing with 0.05% PBST to remove unbound phage, the phage specifically bound to DLL3 was eluted with 100 mM triethylamine. After gradient dilution, log-phase growth of E. coli SS320 was infected and spread on an ampicillin plate overnight at 37° C. A single clone was picked for IPTG-induced expression and the supernatant was used for ELISA detection. The ELISA plate was coated with 2 μg/ml human DLL3 or Cynomolgus monkey DLL3 antigen respectively overnight at 4° C. The plate was washed with 0.05% PBST 3 times, then blocked with 5% skimmed milk for 1 h at room temperature, and washed with 0.05% PBST 3 times. Then 30 μL of induced supernatant was added to each well, and a culture medium was added to a negative control well. The plate was incubated for 1 h at room temperature. Finally, anti-Myc HRP detection was performed (VHH expressed by IPTG induction has his and c-Myc labels). The amino acid sequences of the five heavy chain antibody variable regions of the present disclosure were obtained by sequencing clones from the ELISA assay that bound human and Cynomolgus monkey DLL3 with OD450 values greater than 1.0 and ELISA OD450 ratios greater than 3 to the medium as negative control, with the results shown in Table 1: […]
For orientation: ELISA stands for enzyme-linked immunosorbent assay.

For test [2], the target named is T2, human DLL3 antigen protein (Kactus Biosystems, Cat. No. DLL-HM103) (human, UniProt Q9NYJ7 27-492).
T2 sequence: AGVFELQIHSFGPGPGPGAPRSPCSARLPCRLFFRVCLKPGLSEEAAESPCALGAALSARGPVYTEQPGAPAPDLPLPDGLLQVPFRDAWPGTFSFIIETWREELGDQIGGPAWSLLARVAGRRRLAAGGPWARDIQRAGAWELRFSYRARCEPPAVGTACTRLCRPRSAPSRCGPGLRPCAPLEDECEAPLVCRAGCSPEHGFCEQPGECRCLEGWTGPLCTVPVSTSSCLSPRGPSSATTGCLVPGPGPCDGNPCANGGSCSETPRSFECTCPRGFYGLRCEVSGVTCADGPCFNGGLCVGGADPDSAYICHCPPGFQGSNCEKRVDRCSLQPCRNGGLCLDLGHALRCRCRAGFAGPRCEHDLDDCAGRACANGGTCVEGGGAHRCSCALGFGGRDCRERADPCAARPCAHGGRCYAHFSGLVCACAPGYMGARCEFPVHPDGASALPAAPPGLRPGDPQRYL
The test is described as above. The method, then: as §1

In test [3] the target is T1, Cynomolgus monkey DLL3 antigen protein …. As to the kind of experiment: affinity assay with Cynomolgus monkey DLL3 antigen protein (kinetics; method not restated, Biacore as in Example 18 implied). Background: SPR reads the build-up and loss of mass on a sensor chip optically.
Test [4] addresses T2, human DLL3 antigen protein (Kactus …). As to the kind of experiment: affinity assay with human DLL3 antigen protein (kinetics; method not restated, Biacore as in Example 18 implied).

Where a chain is given by its changes, count along the chain named. Where only a bound is given, the exact number is not on record here.

B1: DLL3-26 VHH (IPTG-induced supernatant, with his and c-Myc labels) (VHH)
VHH: QVQLVESGGGSVQAGGSLRLSCAASGDIYSSSYVGWFRQAPGKEREGVAIIYTSGDSTYYANSVKGRFTISQDKAKKTLYLQMNSLKPEDTAMYYCAARFAIDNSNYWGQGTQVTVSS
notes: not shown: his and c-Myc labels
As to B1, in test [1], the “ELISA OD450 ratio to the medium negative control” value (“ELISA OD450 ratio” for short) was more than 3 fold and the OD450 is more than 1 OD450. For the same molecule, in test [2], the “ELISA OD450 ratio” value was more than 3 fold and the OD450 is more than 1 OD450.

B2: DLL3-3 VHH (IPTG-induced supernatant, with his and c-Myc labels) (VHH)
VHH: DVQLVESGGGSVQAGGSLKLSCKSPTYTISSGYMGWFRQAPGKEREGVAAIYIGGSTTLYADSVKGRFTISADNAEKTVYLQMNTLKPEDSAMYYCAAQLRPNSAYHPLDGRKYNYWGQGTQVTVSS
notes: as for B1
Take B2: in test [1], the “ELISA OD450 ratio” value is more than 3 fold and the OD450 was more than 1 OD450. For the same molecule, in test [2], the “ELISA OD450 ratio” value was more than 3 fold and the OD450 is more than 1 OD450.

B3: DLL3-122 VHH (IPTG-induced supernatant, with his and c-Myc labels) (VHH)
VHH: QVQLVESGGGSVQAGGSLRLSCTASGDTYRSYCMGWFRKAPGKEREGVADIVSDGSTSYADSVKGRFTISKDNAKNTLYLQMNSLKPEDTAMYYCAVDRGGSGGYCYTGRYDYWGQGTQVTVSS
notes: as for B1
For B3, in test [1], the “ELISA OD450 ratio” value is more than 3 fold and the OD450 is more than 1 OD450. In test [2], the “ELISA OD450 ratio” value was more than 3 fold and the OD450 is more than 1 OD450.

B4: DLL3-12 VHH (IPTG-induced supernatant, with his and c-Myc labels) (VHH)
VHH: QVQLVESGGGLVQPGESLRLSCAGSGFAFSSYDMHWVRQAPGKDFEWVSSISRDGRGPRYADFVKGRFTISKDNGRNMLYLQLNSLEIEDTAMYYCSKGYPIMGGTTQGTQVTVSS
notes: as for B1
Turning to B4, in test [1], the “ELISA OD450 ratio” value was more than 3 fold and the OD450 was more than 1 OD450. Moreover, in test [2], the “ELISA OD450 ratio” value is more than 3 fold and the OD450 is more than 1 OD450.

B5: DLL3-276 VHH (IPTG-induced supernatant, with his and c-Myc labels) (VHH)
VHH: QVQLVESGGGSVQAGGSLNLSCATSGSTASTTYMGWFRQAPGKGREGVAIIYTARDNPWYANSVKGRFIISQDNAKKTLYLQMNTLKPEDTATYYCAATLANPTRTAWGQGTLVTVSS
notes: as for B1
Take B5: in test [1], the “ELISA OD450 ratio” value was more than 3 fold and the OD450 is more than 1 OD450. Also, in test [2], the “ELISA OD450 ratio” value is more than 3 fold and the OD450 was more than 1 OD450.

B6: H2-39E2D11-AS humanized antibody variant (antibody, V domains shown)
VH: QVQLVQSGAEVKKPGASVKVSCKASGYTFISYWITWVRQAPGQGLEWMGDIYPGSGSTTNYNEKFKSRVTMTRDTSTSTVYMELSSLRSEDTAVYYCARETTVGGAYAMDYWGQGTLVTVSS
VL: EIVLTQSPATLSLSPGERATLSCRASQSINNNLHWYQQKPGQAPRLLIKYVSQSISGIPARFSGSGSGTDFTLTISSLEPEDFAVYYCQQTASWPLTFGGGTKLEIK
notes: Variant of H2-39E2D11; Its constant regions are not restated
With B6, in test [3], the Kd is 1.63 nM, the koff is 0.000427 s⁻¹ and the kon came to 262000 M⁻¹ s⁻¹. In test [4], this molecule displayed a dissociation constant (Kd) of 1.76 nM, a dissociation rate constant (koff) of 0.000362 s⁻¹ and an association rate constant (kon) of 206000 M⁻¹ s⁻¹.

B7: H2-39E2D11-NA humanized antibody variant (antibody, V domains shown)
VH: B6 VH
VL: B6 VL with A92N, S93A
notes: as for B6
In the case of B7, in test [3], the dissociation constant (Kd) worked out at 0.346 nM, the koff worked out at 8.09e-05 s⁻¹ and the kon worked out at 233000 M⁻¹ s⁻¹. In test [4], the affinity, expressed as Kd, was 0.484 nM; the dissociation rate constant (koff) is 0.00012 s⁻¹; the kon was found to be 247000 M⁻¹ s⁻¹.

B8: H2-39E2D11-QS humanized antibody variant (antibody, V domains shown)
VH: B6 VH
VL: B6 VL with A92Q
notes: as for B6
In the case of B8, in test [3], the equilibrium dissociation constant (Kd) was found to be 0.434 nM, the koff was 8.59e-05 s⁻¹ and the kon was 198000 M⁻¹ s⁻¹. In test [4], the Kd was 0.229 nM, the off-rate (koff) was 3.91e-05 s⁻¹ and the on-rate constant (kon) stood at 171000 M⁻¹ s⁻¹.

What is called Kd is the equilibrium constant for the complex coming apart. As a reminder, the koff is the rate constant with which the complex falls apart. The term kon denotes the rate constant with which the complex forms.

Values taken from patent US20240239878A1 (SHANGHAI QILU PHARMACEUTICAL RESEARCH AND DEVELOPMENT CENTRE, published 2024).
